Consider 3 molecules from publication PMC9678776, “A higher plant FAD synthetase is fused to an inactivated FAD pyrophosphatase” (The Journal of Biological Chemistry, 2022).

One data set has as its target T1, AtFADS1 (Arabidopsis thaliana, UniProt Q9LZE4).
T1 construct: gene FADS1; N-terminus from primer MEIDKA
T1 sequence (Q9LZE4 1-497): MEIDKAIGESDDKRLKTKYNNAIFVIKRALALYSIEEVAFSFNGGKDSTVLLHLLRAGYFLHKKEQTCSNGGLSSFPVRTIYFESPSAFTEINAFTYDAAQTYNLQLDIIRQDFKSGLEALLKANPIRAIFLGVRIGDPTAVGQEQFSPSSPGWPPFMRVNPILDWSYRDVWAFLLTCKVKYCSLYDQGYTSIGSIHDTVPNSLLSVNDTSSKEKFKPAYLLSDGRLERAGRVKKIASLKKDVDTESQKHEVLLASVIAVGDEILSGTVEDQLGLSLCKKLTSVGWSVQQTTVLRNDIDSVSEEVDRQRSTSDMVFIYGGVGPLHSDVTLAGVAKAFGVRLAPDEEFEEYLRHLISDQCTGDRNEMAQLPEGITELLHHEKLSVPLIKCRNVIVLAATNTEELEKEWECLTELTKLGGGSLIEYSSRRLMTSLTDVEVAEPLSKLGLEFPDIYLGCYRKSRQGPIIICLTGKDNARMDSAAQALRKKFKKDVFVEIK
Nature of the data set: HPLC-fluorescence FAD synthetase assay, substrate-inhibition fit. The data set is classed as biochemical. The note with it: substrate inhibition by FMN; 10 mM ATP, zinc acetate 2 mM above ATP, Hepes-NaOH pH 7.0, 30 °C. From the text:
HPLC-fluorescence FAD synthetase assay, substrate-inhibition fit on AtFADS1

Another data set addresses T2, CrFADS1 (Chlamydomonas reinhardtii, UniProt A0A2K3D179).
T2 construct: gene FADS1; bifunctional fusion
T2 sequence (A0A2K3D179 1-582): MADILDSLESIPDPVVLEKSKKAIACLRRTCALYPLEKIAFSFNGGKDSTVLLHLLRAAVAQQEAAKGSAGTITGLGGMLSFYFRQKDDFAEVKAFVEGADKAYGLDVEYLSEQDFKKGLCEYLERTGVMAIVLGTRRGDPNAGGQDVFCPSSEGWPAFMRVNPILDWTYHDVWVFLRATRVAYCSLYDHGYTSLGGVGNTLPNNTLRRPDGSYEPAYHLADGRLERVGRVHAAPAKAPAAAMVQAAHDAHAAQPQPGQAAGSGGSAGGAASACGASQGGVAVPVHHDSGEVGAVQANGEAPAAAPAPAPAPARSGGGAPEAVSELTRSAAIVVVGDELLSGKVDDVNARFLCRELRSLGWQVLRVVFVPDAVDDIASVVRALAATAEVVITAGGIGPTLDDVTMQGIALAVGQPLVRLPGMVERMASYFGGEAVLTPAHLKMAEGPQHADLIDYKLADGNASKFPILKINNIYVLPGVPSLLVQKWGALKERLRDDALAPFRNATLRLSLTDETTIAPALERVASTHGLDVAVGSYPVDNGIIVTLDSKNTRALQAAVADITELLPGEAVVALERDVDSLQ
The data set is described as above. The class given is biochemical. The note with it: substrate inhibition by FMN; 10 mM ATP, zinc acetate 2 mM above ATP, Hepes-NaOH pH 7.0, 30 °C. From the text: (§1) HPLC-fluorescence FAD synthetase assay, substrate-inhibition fit on CrFADS1

Another data set concerns the target T3, AtFADS1^trunc (Arabidopsis thaliana, UniProt Q9LZE4).
T3 construct: gene FADS1; N-terminal FAD synthetase domain only, starting at native Met1
T3 sequence (Q9LZE4 1-254 limits assumed): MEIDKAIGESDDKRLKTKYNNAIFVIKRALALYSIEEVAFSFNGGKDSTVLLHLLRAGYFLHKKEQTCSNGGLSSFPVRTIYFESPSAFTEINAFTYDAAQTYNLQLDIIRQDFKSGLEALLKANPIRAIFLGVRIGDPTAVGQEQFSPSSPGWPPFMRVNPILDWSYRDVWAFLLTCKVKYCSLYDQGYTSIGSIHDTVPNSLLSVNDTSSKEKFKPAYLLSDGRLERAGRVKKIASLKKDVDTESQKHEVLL
The data set is described as above. The class given is biochemical. The note with it: substrate inhibition by FMN; ATP, zinc acetate 2 mM above ATP, Hepes-NaOH pH 7.0, 30 °C. From the text: HPLC-fluorescence FAD synthetase assay, substrate-inhibition fit on AtFADS1^trunc

Substrate in data set [1]: Nc1ncnc2c1ncn2[C@@H]1O[C@H](COP(=O)(O)OP(=O)(O)OP(=O)(O)O)[C@@H](O)[C@H]1O
The data set can be described thus: HPLC-fluorescence FAD synthetase assay, Michaelis-Menten. The data set is classed as biochemical, Arabidopsis thaliana. The note with it: FAD synthetase activity, 15 μM FMN, zinc acetate 2 mM above ATP, Hepes-NaOH pH 7.0, 30 °C. From the text:
HPLC-fluorescence FAD synthetase assay, Michaelis-Menten on […]1

Substrate in data set [2]: Cc1cc2nc3c(=O)[nH]c(=O)nc-3n(C[C@H](O)[C@H](O)[C@H](O)COP(=O)(O)O)c2cc1C
The data set can be described thus: HPLC-fluorescence FAD synthetase assay, substrate-inhibition fit. The data set is classed as biochemical, Chlamydomonas reinhardtii. The note with it: FAD synthetase activity, 10 mM ATP, zinc acetate 2 mM above ATP, Hepes-NaOH pH 7.0, 30 °C.
Text: as §1

Substrate in data set [3]: Cc1cc2nc3c(=O)[nH]c(=O)nc-3n(C[C@H](O)[C@H](O)[C@H](O)COP(=O)(O)OP(=O)(O)OC[C@H]3O[C@@H](n4cnc5c(N)ncnc54)[C@H](O)[C@@H]3O)c2cc1C
Nature of the data set: HPLC-fluorescence FAD pyrophosphatase assay, Michaelis-Menten. The data set is classed as biochemical, Chlamydomonas reinhardtii. The note with it: FAD pyrophosphatase activity, 2 mM CoCl2, 200 mM KCl, Hepes-NaOH pH 7.0, 30 °C. From the text:
HPLC-fluorescence FAD pyrophosphatase assay, Michaelis-Menten on […]1

In the case of `Cc1cc2nc3c(=O)[nH]c(=O)nc-3n(C[C@H](O)[C@H](O)[C@H](O)COP(=O)(O)O)c2cc1C` [FMN], the “Ki” value at AtFADS1 came out at 190 ± 36 µM; at CrFADS1 it was 336 ± 66 µM; at AtFADS1^trunc, 32.7 ± 18.2 µM.

B1: AtFADS1 (Arabidopsis thaliana) (protein)
chain: MEIDKAIGESDDKRLKTKYNNAIFVIKRALALYSIEEVAFSFNGGKDSTVLLHLLRAGYFLHKKEQTCSNGGLSSFPVRTIYFESPSAFTEINAFTYDAAQTYNLQLDIIRQDFKSGLEALLKANPIRAIFLGVRIGDPTAVGQEQFSPSSPGWPPFMRVNPILDWSYRDVWAFLLTCKVKYCSLYDQGYTSIGSIHDTVPNSLLSVNDTSSKEKFKPAYLLSDGRLERAGRVKKIASLKKDVDTESQKHEVLLASVIAVGDEILSGTVEDQLGLSLCKKLTSVGWSVQQTTVLRNDIDSVSEEVDRQRSTSDMVFIYGGVGPLHSDVTLAGVAKAFGVRLAPDEEFEEYLRHLISDQCTGDRNEMAQLPEGITELLHHEKLSVPLIKCRNVIVLAATNTEELEKEWECLTELTKLGGGSLIEYSSRRLMTSLTDVEVAEPLSKLGLEFPDIYLGCYRKSRQGPIIICLTGKDNARMDSAAQALRKKFKKDVFVEIK
notes: N-terminus from primer MEIDKA
One may read the Km as the substrate concentration at which the rate is half of its maximum. By kcat is commonly meant the maximal rate divided by the concentration of active sites. Usually kcat/Km stands for the turnover number divided by the Michaelis constant. With B1, in data set [1], the Km was 665 ± 11 µM, the kcat stood at 0.287 ± 0.011 s⁻¹ and the kcat/Km was 432 ± 18 M⁻¹ s⁻¹.

B2: CrFADS1 (Chlamydomonas reinhardtii) (protein)
chain: MADILDSLESIPDPVVLEKSKKAIACLRRTCALYPLEKIAFSFNGGKDSTVLLHLLRAAVAQQEAAKGSAGTITGLGGMLSFYFRQKDDFAEVKAFVEGADKAYGLDVEYLSEQDFKKGLCEYLERTGVMAIVLGTRRGDPNAGGQDVFCPSSEGWPAFMRVNPILDWTYHDVWVFLRATRVAYCSLYDHGYTSLGGVGNTLPNNTLRRPDGSYEPAYHLADGRLERVGRVHAAPAKAPAAAMVQAAHDAHAAQPQPGQAAGSGGSAGGAASACGASQGGVAVPVHHDSGEVGAVQANGEAPAAAPAPAPAPARSGGGAPEAVSELTRSAAIVVVGDELLSGKVDDVNARFLCRELRSLGWQVLRVVFVPDAVDDIASVVRALAATAEVVITAGGIGPTLDDVTMQGIALAVGQPLVRLPGMVERMASYFGGEAVLTPAHLKMAEGPQHADLIDYKLADGNASKFPILKINNIYVLPGVPSLLVQKWGALKERLRDDALAPFRNATLRLSLTDETTIAPALERVASTHGLDVAVGSYPVDNGIIVTLDSKNTRALQAAVADITELLPGEAVVALERDVDSLQ
notes: bifunctional fusion
B2: in data set [2], the Km stood at 0.54 ± 0.09 µM, the kcat was 0.103 ± 0.004 s⁻¹ and the kcat/Km amounted to 191000 ± 33000 M⁻¹ s⁻¹. Moreover, in data set [3], the Km stood at 4.88 ± 0.56 µM, the kcat amounted to 0.395 ± 0.011 s⁻¹ and the kcat/Km amounted to 81000 ± 9600 M⁻¹ s⁻¹.
